Measurements taken from publication PMC10514341, “Organisation of the orthobunyavirus tripodal spike and the structural changes induced by low pH and K^+ during entry” (Nature Communications, 2023).

Target: the molecule itself
Assay: cryo-EM structure; cryo-electron tomography and subtomogram averaging (PEET, C3 symmetry) of glycoprotein spikes on purified BUNV virions, pH 7.3/no K+, 2 hr at 37 °C; tripod average ~16 Å, floor average ~13 Å (GS-FSC); X-ray head/stalk structures and an AlphaFold Gn-Gc model fitted into the maps

B1: Bunyamwera virus (BUNV) glycoprotein Gn (natural protein, UniProt P04505 17-302, looked up)
chain: SPVITRCFHGGQLIAERKSQTSISEFCIKDDVSMLKSEIVYTKNDTGIFGHSKVFRHWTITDWKACNPVVTAGGSINVIEVDKNLNLVTRNYVCTGDCTITVDRKNAQIIFQTDKLNHFEVTGTTISTGWFKSKASVTLDRTCEHIKVSCGKKTLQFHACFKQHMSCVRFLHRSILPGSMAISICQNIELIIITILALCIFIIMIILTKTYICYVLIPVFMPIAFAYGWAYNRSCKKCTCCGLAYHPFTNCGSYCVCGSKFETSDRMRMHRESGLCQGFKSLRVAR
modifications: N-linked glycan at N60
notes: Glycoprotein Gn of Bunyamwera virus, cut from the M segment polyprotein (Gn-NSm-Gc); ectodomain 17-205; membrane-anchored in the virion envelope; Native Gn in the envelope of purified virions; also called BUNV Gn
  stoichiometry N: 3

B2: Bunyamwera virus (BUNV) glycoprotein Gc (natural protein)
chain: EEDCWKNEELKEDCVGPLIAPKDCTDKDHKTYLSEASLLATAKKITQVDAENVEILGKTMESAIRVIERQKTYHRMHLLEAVFLNKHCDYYKMFEHNSGYSQVKWRMMIKTQHFDICALQANSPFCAQCIADNSCAQGSWEFDTHMNSTYSSKVDNFKHDFSLFLRIFEAAFPGTAYVHLLTNIKEKKPYQAVSMIEKIKKKFPNNKLLIGYLDFGKYLLGLSHASTYELQQRQLDKLYQPTELTRSGGQQTSLANSVVGQATKECKKYKDVSCLSPRFGIPLEDLISCCDQPNYNIYKKPKKVYKAHDKEETWCINDQHCLVDFVPAEADTVEKLKPMKCWLVDPGKNDDVYSIAIKTCRVVDKGVCTVNSQKWNIIKCDSGPLYYSDHIPGEDTGNDIGHYCVSAGCKTDRYPINPDVVTDCVWEFTSRKSQYIGKISMQSLEDYEKALTDRLTHTLETYSFAPLENLPHIKPVYKYITAQGVENSDGIEGAFITASIPAAGGTSIGYNVRSKDGFPLLDLIVFVKSAVIKSTYNHIYDTGPTISINTKHDEHCTGQCPSNIEHEANWLTFSQERTSRWGCEEFGCLAVNTGCVFGSCQDVIRPETKVYRKAVDEVVILTVCITYPGHTFCTEINAIEPKITEEIELQFKTVDTKTLPYIVAVNNHKLYSGQINDLGTFGQMCGNVQKTNSSILGTGTPKFDYTCHGASRKDIIVRRCYNNNFDSCKLLKEETQLIFNDDHDTITVYNTNHLIGELAIKLILGDIQYKLFTETLDLQIDAKCVGCPDCFESYSCNFQIVSNIDTICSLEGPCDTFHNRISIKAMQQNYAVKLSCQKDPRPSGTFKICNREYTVVFHTVAKDDKIEINVGDQTSFIKEKDDRCKTWLCRVRDEGISVIFEPIKAFFGSYFSIFFYIIVVVVVGFLIIYIFMPMFMKLKEVLKANEKLYLQEIKQK
modifications: N-linked glycan at N624
notes: Glycoprotein Gc of Bunyamwera virus, cut from the M segment polyprotein (Gn-NSm-Gc); ectodomain 478-1382; head, stalk and floor (fusion domain) regions; membrane-anchored in the virion envelope; Native Gc in the envelope of purified virions; also called BUNV Gc
  stoichiometry N: 3
